How the values were obtained:
HUVEC = assay: Vascular endothelial cell viability assay; format: cell-based, human; conditions: 48 h
Method: FIGS. 4A and 4B are graphs of the data from the vascular endothelial cell viability assay. […] The graphs show mean values and error bars represent 95% C.I. **=ANOVA Tukey's post test p<O.Ol. n.s.=not significant. […] Viability was measured as described for the U266 cells. […] Results obtained from the HUVEC viability studies that were run in triplicate are depicted in FIGS. 4A-B, and are presented as a percentage of control (untreated) cells.
EXAMPLE 3 illustrates Gal-3C inhibits proliferation of MM cells. Cell Proliferation (Viability) Assays. Cell proliferation was assessed with a ViaLight Plus Cell Proliferation and Cytotoxicity BioAssay Kit (Lonza, Walkersville, Md., USA) according to the directions of the manufacturer. In brief, myeloma cells were seeded (8,000 per well) in 50 μL of RPMI-1640 with 10% heat-inactivated FBS (growth medium) in 96-well plates. HUVEC cells were seeded (10,000/well) in 50 μl EGM-2 medium in 96-well plates. Gal-3C (2× concentration) in 50 μL of growth medium was added to triplicate wells and the plate kept at the CO2 incubator at 37° C. for 48 hour. For the ViaLight assay, 50 μL of lysis buffer was added to each well, the plate was incubated for 10 minutes, after which 50 μL of cell lysate from each well was transferred to a solid white Lumitrac-200 plate and 50 μL of reconstituted AMR Plus was added. Luminescence was measured with a 1-s integrated setting in a Berthold luminometer after 2 minutes. With Alamar Blue, 10 μL of reagent was added per well and the plate kept in the CO2 incubator for 4 hours. Fluorescence intensity was measured at 590-nm on a Polarstar Galaxy (BMG Labtech, Cary, N.C.) microplate reader. The blank (growth media with 10 μl Alamar Blue) was subtracted from the raw fluorescence to obtain adjusted fluorescence readings. Triplicate data points were analyzed and the data shown are representative of 3 or more studies.

[1] = test system: U266 MM subcutaneous tumors; assay: U266 subcutaneous tumor model of MM in NOD/SCID mice; format: in vivo, mouse; conditions: for mean difference of tumor volume between Gal-3C and Bor: Gal-3C lower than Bor, P<0.001
Method: Testing Gal-3C and Bonin NOD/SCID mouse model of MM: Prior to injection, U266 cells were washed once in Dulbecco's PBS (Sigma-Aldrich), counted, and adjusted to the appropriate density with additional PBS prior to inoculation. PBS containing a suspension of 1×10^7 U266 cells was injected subcutaneously into the abdomen of naive NOD/SCID mice. The primary tumors were measured with a pair of calipers once a week. Tumor volume was calculated by the formula width 2×length×0.5, where width was the smallest dimension. The mice were randomly divided into four groups with five mice in each group after 14 days. Control group #1 was subcutaneously implanted in the abdomen with a PBS-only containing 200-μl mini-osmotic pump. Group #2 received a dose of Gal-3C (30 μg/d/mouse) subcutaneously over a 16-day period for a total of 500 μg via a 200-μl mini-osmotic pump implanted abdominally. Group #3 was treated with six doses of 15 μg Bonin 50-μl injections via the tail vein on days 1-2, 8-9, and 15-16 for a total of 90 μg. Group #4 received Gal-3C via mini-pump for a total dose of 500 μg Gal-3C (30 μg/d/mouse) plus a total 90 μg Bor in 21 days. Anesthetized animals were euthanized and a post-mortem examination was conducted on the whole animals and dissected organs after 35 days.

B1: Gal-3C: N-terminally truncated human galectin-3 consisting of 143 carboxy-terminal amino acid residues, SEQ ID NO: 1 (protein)
chain: GAPAGPLIVPYNLPLPGGVVPRMLITILGTVKPNANRIALDFQRGNDVAFHFNPRFNENNRRVIVCNTKLDNNWGREERQSVFPFESGKPFKIQVLVEPDHFKVAVNDAHLLQYNHRVKKLNEISKLGISGDIDITSASYTMI
Which “effect on HUVEC viability” value (HUVEC; at the concentration used in the chemotaxis and angiogenesis assays (Gal-3C 2 μg/ml, Bor 1 nM)) does the source give for B1 here?
The value was “did not display significant effects”.

And the “effect on HUVEC viability” value (HUVEC; at the highest concentrations)?
Its value is “mild effect”.

And the “mean difference of tumor volume between Gal-3C and Bor” value ([1]; day 21)?
The value was 4.431±1.494 mm^3.

And the “average tumor volume relative to that of the untreated controls” value ([1]; day 35, Gal-3C 30 μg/d/mouse by mini-osmotic pump, Bor six doses of 15 μg via tail vein)?
The value was 13.5%.

What about the “mean difference of tumor volume between Gal-3C and Bor” value ([1]; day 35) of the same molecule?
Its value is 31.54±4.379 mm3.

From patent US9744212B2, “Galectin-3C combination therapy for human cancer” (Texas Tech University System, priority 2011, dated 2017)
